From publication PMC5037138, “A Novel Class of Plant Type III Polyketide Synthase Involved in Orsellinic Acid Biosynthesis from Rhododendron dauricum” (Frontiers in Plant Science, 2016)

Assays:
Assay in all cases: HPLC product quantification, Hanes-Woolf
Assay type in all cases: biochemical, Rhododendron dauricum
[1] = substrate: CCCCCC(=O)SCCNC(=O)CCNC(=O)[C@H](O)C(C)(C)COP(=O)(O)OP(=O)(O)OC[C@H]1O[C@@H](n2cnc3c(N)ncnc32)[C@H](O)[C@@H]1OP(=O)(O)O; conditions: 4-hydroxy-6-pentyl-2-pyrone formation, 200 uM malonyl-CoA, pH 7.0, 30 C
Description: (§1) HPLC product quantification, Hanes-Woolf on ORS (orcinol synthase)

[2] = substrate: CCCC(=O)SCCNC(=O)CCNC(=O)[C@H](O)C(C)(C)COP(=O)(O)OP(=O)(O)OC[C@H]1O[C@@H](n2cnc3c(N)ncnc32)[C@H](O)[C@@H]1OP(=O)(O)O; conditions: 4-hydroxy-6-propyl-2-pyrone formation, 200 uM malonyl-CoA, pH 7.0, 30 C
Description: as §1

[3] = substrate: CC(=O)SCCNC(=O)CCNC(=O)[C@H](O)C(C)(C)COP(=O)(O)OP(=O)(O)OC[C@H]1O[C@@H](n2cnc3c(N)ncnc32)[C@H](O)[C@@H]1OP(=O)(O)O; conditions: orcinol formation (major product), 200 uM malonyl-CoA, 100 mM potassium phosphate pH 7.0, 30 C, no OAC
Description: as §1

[4] = substrate: CC(C)(COP(=O)(O)OP(=O)(O)OC[C@H]1O[C@@H](n2cnc3c(N)ncnc32)[C@H](O)[C@@H]1OP(=O)(O)O)[C@@H](O)C(=O)NCCC(=O)NCCSC(=O)/C=C/c1ccc(O)cc1; conditions: naringenin formation, 200 uM malonyl-CoA, pH 7.0, 30 C

| Protein | Km [1] [µM] | kcat [1] [min⁻¹] | Km [2] [µM] | kcat [2] [min⁻¹] | Km [3] [µM] | kcat [3] [min⁻¹] | Km [4] [µM] | kcat [4] [min⁻¹] |
| --- | --- | --- | --- | --- | --- | --- | --- | --- |
| ORS (orcinol synthase) (Rhododendron dauricum) (protein, full length, 412 residues (45,707 Da), N-terminal His6 tag kept (pQE80L), E. coli M15; ~48 kDa subunit; homodimer ~101 kDa) MALVNHRENVKGRAQILAIGTANPKNCFRQVDYPDYYFRVTKSDHLIDLKAKFKRMCEKSMIEKRYMHVNEEILEQNPSMNHGGEKMVSSLDVRLDMEIMEIPKLAAEAATKAMDEWGQPKSRITHLVFHSTLGTVMPGVDYELIKLLGLNPSVKRFMLYHLGCYGGGTVLRLAKDLAENNPGSRVLVLCCEMMPSGFHGPPSLQHAHLDILTGHAIFGDGAGAVIVGCVDPSGGTNGVVERGVRRYEQPLFEIHSAYQTVLPDSKDAVGGRLREAGLIYYLSKRLSNDVSGKIDECCLAEAFSAAIKDNFEDWNSLFWIVHPAGRPILDKLDAKLGLNKEKLRASRNVLRDYGNMWSSSVLFVLDEMRKGSIAQRKTTTGEGFEWGVLLGFGPGVTVETVVLRSVPTAKLK | 26.4 | 0.289 | 17.1 | 0.405 | 9.98 | 1.46 | – | – |
| CHS (R. dauricum chalcone synthase) (Rhododendron dauricum) (protein, full length, 389 residues (42,599 Da), N-terminal His6 tag kept (pQE80L), E. coli M15; ~45 kDa subunit; homodimer ~94 kDa) MVTVEDVRKAQRAEGPATVMAIGTATPPNCVDQSTYPDFYFRITNSEHKAELKEKFQRMCDKSMIKKRYMYLTEEILKENPSVCEYMAPSLDARQDMVVVEVPKLGKEAATKAIKEWGQPKSKITHLVFCTTSGVDMPGADYQLTKLLGLRPSVKRLMMYQQGCFAGGTVLRLAKDLAENNKGARVLVVCSEITAVTFRGPSDTHLDSLVGQALFGDGAAAIIVGADPVPEVEKPLFELVSAAQTILPDSDGAIDGHLREVGLTFHLLKDVPGLISKNIEKALTEAFQPLGISDWNSIFWIAHPGGPAILDQVELKLSLKPEKLRATRHVLSEYGNMSSACVLFILDEMRRKSAEEGLKTTGEGLEWGVLFGFGPGLTVETVVLHSLCT | – | – | – | – | – | – | 8.15 | 0.534 |
